Measured values published in US20250163168A1, “NOVEL ANTIBODIES AND ANTIBODY CONJUGATES FOR THE TREATMENT OF METABOLIC DISORDERS” (PFIZER INC., priority 2023, published 2025).

Key:
[1] = system: diet induced obese (DIO) male hGIPR mice; experiment: Oral glucose tolerance test (OGTT) in DIO male hGIPR mice; assay type: in vivo, mouse; details: single dose 1 mpk, versus IgG (FIG. 5B)
From the text: To test the efficacy of anti-GIPR antibodies GIPR-0107 and GIPR-2767 in vivo, humanized mice expressing hGIPR were made in which human GIPR is expressed under the control of the endogenous mouse Gipr locus while knocking out the mouse Gipr gene. Human GIPR cDNA-SV40 pA was inserted in-frame with mouse Gipr at the end of exon 2 (1st coding exon) utilizing CRISPR/Cas9 technology. Insertion of human GIPR cDNA and disruption of mouse Gipr was validated by genotyping, and human GIPR mRNA expression was confirmed by quantitative PCR. These hGIPR mice were used to measure the in vivo efficacy of GIPR-0107 and GIPR-2767 using oral glucose tolerance test (OGTT) and weight gain prevention studies.
Mice were singly housed, maintained on a 12-hour light/12-hour dark cycle, and received food and wr ad libitum. Prior to the start of the study, mice were weighed and randomized into groups based on body weight. […] Before dosing, mice were bled vial tail snip to obtain a basal blood glucose reading by AlphaTRAK handheld glucometer, and at time 0, mice were dosed with 1.5 g/kg glucose by oral gavage. Blood glucose was measured by glucometer at 15 min, 30 min, 60 min, and 120 min after glucose administration. […] All residuals were evaluated for meeting the normality assumption with the Shapiro-Wilks Test and Q-Q Plots and the sphericity and homoscedasticity assumption by the residual plots and Bartlett's test. […]

mouse GIPR/GIP = target: T1, mouse GIPR/GIP (Mus musculus, UniProt Q0P543); experiment: Cross-species activity to mouse GIPR/GIP
T1 sequence (Q0P543 19-460): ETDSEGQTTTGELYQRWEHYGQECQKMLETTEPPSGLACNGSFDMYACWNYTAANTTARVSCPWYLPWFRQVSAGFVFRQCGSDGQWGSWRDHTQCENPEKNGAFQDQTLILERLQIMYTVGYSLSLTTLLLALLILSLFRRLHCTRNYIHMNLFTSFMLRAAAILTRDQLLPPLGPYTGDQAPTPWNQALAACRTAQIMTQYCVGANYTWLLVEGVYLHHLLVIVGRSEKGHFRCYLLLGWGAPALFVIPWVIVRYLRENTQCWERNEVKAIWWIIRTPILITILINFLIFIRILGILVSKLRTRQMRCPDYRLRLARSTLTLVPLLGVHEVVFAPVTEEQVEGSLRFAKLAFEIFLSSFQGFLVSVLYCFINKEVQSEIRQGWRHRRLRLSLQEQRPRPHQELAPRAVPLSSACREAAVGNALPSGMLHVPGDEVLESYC

Human GIPR ECD = target: T2, Human GIPR ECD (Homo sapiens, UniProt P48546); experiment: Kinetic evaluation of anti-GIPR antibody by surface plasmon resonance (SPR); set-up: made in house; details: SPR at 37° C., captured antibody, 1:1 binding model
T2 sequence (P48546 with tags, fused parts or gaps): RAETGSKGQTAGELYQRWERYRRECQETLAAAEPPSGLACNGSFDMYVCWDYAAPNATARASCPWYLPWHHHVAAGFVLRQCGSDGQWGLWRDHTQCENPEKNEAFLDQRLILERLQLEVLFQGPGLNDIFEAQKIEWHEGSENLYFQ
Protocol: Human GIPR ECD (amino acid sequence of SEQ ID NO: 33) was prepared. An anti-human Fc sensor chip was prepared by amine coupling of anti-human IgG antibody (catalog number BR-1008-39, Cytiva) to all flow cells of a carboxymethylated dextran coated sensor chip (CM5) (catalog number BR100530, Cytiva) according to the manufacturer's protocols. The flow cells were activated by injecting a 1:1 mixture of 400 mM 1-Ethyl-3-(3-dimethylaminopropyl) carbodiimide hydrochloride (EDC) and 100 mM N-hydroxysuccinimide (NHS) for 7 minutes at a flow rate of 10 μL/minute. Anti-human IgG antibody was diluted to ˜12.5 μg/mL in 10 mM sodium acetate pH 5.0 and injected over all flow cells for 7 minutes at 10 μL/minute. All flow cells were blocked with 1M ethanolamine-HCl (ETH) for 7 minutes at 10 μL/minute. Final immobilization levels of the capture antibody were approximately 12,000 resonance units (RU). […]
Flow cell 1 was used as a reference surface. […] Rate constants and affinities were determined by fitting the data to a 1:1 binding model in BIAcore™ Insight Evaluation software version 3.0.12 (GE Healthcare).
After antibody capture, dilutions of the human GIPR ECD proteins were flowed over the sensor chip surface and the association rate constant (ka), dissociation rate constant (kd), and KD values were determined for binding to human GIPR ECD (Table 5).

2G10: fully human monoclonal anti-GIPR antagonist antibody portion of AMG 133 (maridebart cafraglutide); benchmark antibody [reference compound]
baseline glucose adjusted AUC in OGTT [1]: not significantly different than IgG | cross-reactivity to additional species such as mouse GIPR (mouse GIPR/GIP): not cross-reactive | Kd (Human GIPR ECD): 0.0192 µM
